Data taken from PMC5779225.

B1: Frizzled3 (Fzd3): N42Q (protein)
parent chain: MAVSWIVFDLWLLTVFLGQIGGHSLFSCEPITLRMCQDLPYNTTFMPNLLNHYDQQTAALAMEPFHPMVNLDCSRDFRPFLCALYAPICMEYGRVTLPCRRLCQRAYSECSKLMEMFGVPWPEDMECSRFPDCDEPYPRLVDLNLVGDPTEGAPVAVQRDYGFWCPRELKIDPDLGYSFLHVRDCSPPCPNMYFRREELSFARYFIGLISIICLSATLFTFLTFLIDVTRFRYPERPIIFYAVCYMMVSLIFFIGFLLEDRVACNASSPAQYKASTVTQGSHNKACTMLFMVLYFFTMAGSVWWVILTITWFLAAVPKWGSEAIEKKALLFHASAWGIPGTLTIILLAMNKIEGDNISGVCFVGLYDVDALRYFVLAPLCLYVVVGVSLLLAGIISLNRVRIEIPLEKENQDKLVKFMIRIGVFSILYLVPLLVVIGCYFYEQAYRGIWETTWIQERCREYHIPCPYQVTQMSRPDLILFLMKYLMALIVGIPSIFWVGSKKTCFEWASFFHGRRKKEIVNESRQVLQEPDFAQSLLRDPNTPIIRKSRGTSTQGTSTHASSTQLAMVDDQRSKAGSVHSKVSSYHGSLHRSRDGRYTPCSYRGMEERLPHGSMSRLTDHSRHSSSHRLNEQSRHSSIRDLSNNPMTHITHGTSMNRVIEEDGTSA
B2: Frizzled3 (Fzd3): N356Q (protein)
parent chain: B1 parent chain
B3: Frizzled3 (Fzd3): 2NQ (protein)
parent chain: B1 parent chain

Test: surface biotinylation, NeutrAvidin pull-down, immunoblot
Settings: glycan lost; control: wild type

Protein | localisation_or_trafficking
B1 | decreases
B2 | abolishes
B3 | changes
